B1: full-length (FL) yeast Hrr25, nonphosphorylated (enzyme, Saccharomyces cerevisiae (budding yeast), UniProt P29295 1-494, looked up)
chain: MDLRVGRKFRIGRKIGSGSFGDIYHGTNLISGEEVAIKLESIRSRHPQLDYESRVYRYLSGGVGIPFIRWFGREGEYNAMVIDLLGPSLEDLFNYCHRRFSFKTVIMLALQMFCRIQYIHGRSFIHRDIKPDNFLMGVGRRGSTVHVIDFGLSKKYRDFNTHRHIPYRENKSLTGTARYASVNTHLGIEQSRRDDLESLGYVLIYFCKGSLPWQGLKATTKKQKYDRIMEKKLNVSVETLCSGLPLEFQEYMAYCKNLKFDEKPDYLFLARLFKDLSIKLEYHNDHLFDWTMLRYTKAMVEKQRDLLIEKGDLNANSNAASASNSTDNKSETFNKIKLLAMKKFPTHFHYYKNEDKHNPSPEEIKQQTILNNNAASSLPEELLNALDKGMENLRQQQPQQQVQSSQPQPQPQQLQQQPNGQRPNYYPEPLLQQQQRDSQEQQQQVPMATTRATQYPPQINSNNFNTNQASVPPQMRSNPQQPPQDKPAGQSIWL
notes: cloned into pFastBacHT A with a TEV cleavage site after the tag; also called FL Hrr25; Hrr25 WT; source: Trichoplusia ni High Five cells, purified (NiNTA, gel filtration)
B2: full-length (FL) yeast Hrr25, autophosphorylated (enzyme, Saccharomyces cerevisiae (budding yeast), UniProt P29295 1-494, looked up)
chain: B1 chain
modifications: autophosphorylation sites mapped by MS: phospho-Thr27, Ser31, Ser143, Thr144, Ser181, Ser191, Ser198, Ser438, Thr449, Thr453, Ser461, Ser470, Ser491
notes: Hrr25, casein kinase 1 of Saccharomyces cerevisiae, full length, after autophosphorylation with ATP; also called pHrr25; autophosphorylated FL kinase; source: Trichoplusia ni High Five cells, purified (NiNTA, gel filtration); incubated with 1 mM ATP for 1 h at 30°C
B3: GST-tagged Sit4 (enzyme, Saccharomyces cerevisiae (budding yeast), UniProt P20604 1-311, looked up)
chain: MVSRGPDEWLETIKKCQALTENEMKQLCEMVKELLMEESNIQPVQTPVTVCGDIHGQFHDLLELFRTAGGFPDDINYIFLGDYVDRGYYSLETFTLLMCLKVKYPAKITLVRGNHESRQITQVYGFYEECLNKYGSTTVWKYCCQVFDFLTLAAIIDGKILCVHGGLSPEIRMLDQIRVLSRAQEVPHEGGFSDLLWSDPDNVEAWQVSPRGAGWLFGSKVAREFNHVNGLNLIARAHQLVMEGFKYHFPEKDVVTVWSAPNYCYRCGNVASVMKVDEDLEPTFKIFSAVPDDYIRESTANHNNQRAGYFL
notes: Sit4, phosphatase of Saccharomyces cerevisiae, expressed from the pETM30 vector; also called GST-Sit4; Sit4 phosphatase
B4: Hrr25 1-394, autophosphorylated (domain or fragment, Saccharomyces cerevisiae (budding yeast), UniProt P29295 1-394, looked up)
chain: MDLRVGRKFRIGRKIGSGSFGDIYHGTNLISGEEVAIKLESIRSRHPQLDYESRVYRYLSGGVGIPFIRWFGREGEYNAMVIDLLGPSLEDLFNYCHRRFSFKTVIMLALQMFCRIQYIHGRSFIHRDIKPDNFLMGVGRRGSTVHVIDFGLSKKYRDFNTHRHIPYRENKSLTGTARYASVNTHLGIEQSRRDDLESLGYVLIYFCKGSLPWQGLKATTKKQKYDRIMEKKLNVSVETLCSGLPLEFQEYMAYCKNLKFDEKPDYLFLARLFKDLSIKLEYHNDHLFDWTMLRYTKAMVEKQRDLLIEKGDLNANSNAASASNSTDNKSETFNKIKLLAMKKFPTHFHYYKNEDKHNPSPEEIKQQTILNNNAASSLPEELLNALDKGMENLR
modifications: autophosphorylation sites mapped by MS: the sites detected in full length Hrr25 (Thr27, Ser31, Ser143, Thr144, Ser181, Ser191, Ser198) and in addition Ser41, Ser44, Ser60, Ser153, Thr161, Ser236, Thr239, Ser242, Tyr266, Ser317, Thr326, Ser330, Thr346, Ser376
notes: source: E. coli pRARE cells, purified (NiNTA, gel filtration); incubated with 1 mM ATP for 1 h at 30°C

What all share (assay): pull-down; 20 μg GST-tagged bait mixed with equimolar Hrr25 variant, GST Sepharose 4B, 1 h at 4°C; 20 mM Tris pH 7.5, 150 mM NaCl, 0.5% Tween 20, 2 mM DTT, 2 mM MgCl2; three washes; SDS-PAGE and WB with Hrr25-specific antibodies
Conditions in all cases: both partners purified

One assay concerns the target T1, FL GST-Elp1 (Saccharomyces cerevisiae (budding yeast), UniProt Q06706 1-1349).
T1 construct: Elp1, Elongator subunit of Saccharomyces cerevisiae, full length, expressed from the pETM30 vector; also called Elongator subunit Elp1
T1 sequence (looked up): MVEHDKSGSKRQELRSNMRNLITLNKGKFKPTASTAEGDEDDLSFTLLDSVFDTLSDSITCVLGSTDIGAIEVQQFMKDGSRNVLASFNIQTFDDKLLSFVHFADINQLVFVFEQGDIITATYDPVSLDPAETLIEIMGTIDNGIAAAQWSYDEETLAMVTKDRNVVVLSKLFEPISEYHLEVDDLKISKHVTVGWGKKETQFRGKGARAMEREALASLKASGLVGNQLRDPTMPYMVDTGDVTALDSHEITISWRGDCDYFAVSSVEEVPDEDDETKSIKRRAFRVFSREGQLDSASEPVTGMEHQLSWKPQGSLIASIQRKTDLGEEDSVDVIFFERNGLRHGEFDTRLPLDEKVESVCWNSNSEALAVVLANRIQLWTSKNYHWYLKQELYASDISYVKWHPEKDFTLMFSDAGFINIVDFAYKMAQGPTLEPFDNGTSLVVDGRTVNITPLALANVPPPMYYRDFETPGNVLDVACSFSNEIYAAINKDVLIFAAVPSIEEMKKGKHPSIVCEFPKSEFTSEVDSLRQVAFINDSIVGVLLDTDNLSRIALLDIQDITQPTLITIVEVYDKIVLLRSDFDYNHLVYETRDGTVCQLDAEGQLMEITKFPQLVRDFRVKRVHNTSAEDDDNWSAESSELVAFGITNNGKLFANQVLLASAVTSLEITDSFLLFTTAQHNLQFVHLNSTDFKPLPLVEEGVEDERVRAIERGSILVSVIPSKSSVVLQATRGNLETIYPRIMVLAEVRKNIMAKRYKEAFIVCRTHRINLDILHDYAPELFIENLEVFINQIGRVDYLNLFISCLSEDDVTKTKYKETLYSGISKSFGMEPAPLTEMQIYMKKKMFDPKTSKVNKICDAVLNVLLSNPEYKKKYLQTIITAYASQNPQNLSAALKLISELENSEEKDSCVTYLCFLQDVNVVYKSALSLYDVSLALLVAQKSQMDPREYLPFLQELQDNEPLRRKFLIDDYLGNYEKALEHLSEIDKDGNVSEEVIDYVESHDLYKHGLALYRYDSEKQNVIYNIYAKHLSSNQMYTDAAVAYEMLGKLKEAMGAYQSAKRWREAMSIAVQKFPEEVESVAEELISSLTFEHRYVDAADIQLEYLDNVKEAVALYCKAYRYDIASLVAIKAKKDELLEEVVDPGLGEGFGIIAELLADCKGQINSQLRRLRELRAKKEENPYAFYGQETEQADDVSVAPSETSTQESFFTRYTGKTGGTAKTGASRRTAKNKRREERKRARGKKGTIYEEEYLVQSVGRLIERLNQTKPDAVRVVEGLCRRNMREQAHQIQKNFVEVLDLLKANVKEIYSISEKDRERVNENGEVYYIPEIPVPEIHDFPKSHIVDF

In assay [1] the target is B1.
The target of assay [2] is T2, Hrr25 1-394, nonphosphorylated (Saccharomyces cerevisiae (budding yeast), UniProt P29295 1-394).
T2 construct: pETM11 with a TEV cleavage site after the tag; also called P/Q truncation; truncation variant lacking the P/Q-rich region; source: E. coli pRARE cells, purified (NiNTA, gel filtration)
T2 sequence (looked up): B4 chain

For a further assay, the target named is T3, GST-Elp1 1-734 (Saccharomyces cerevisiae (budding yeast), UniProt Q06706 1-734).
T3 construct: also called truncated form of GST-Elp1
T3 sequence (looked up): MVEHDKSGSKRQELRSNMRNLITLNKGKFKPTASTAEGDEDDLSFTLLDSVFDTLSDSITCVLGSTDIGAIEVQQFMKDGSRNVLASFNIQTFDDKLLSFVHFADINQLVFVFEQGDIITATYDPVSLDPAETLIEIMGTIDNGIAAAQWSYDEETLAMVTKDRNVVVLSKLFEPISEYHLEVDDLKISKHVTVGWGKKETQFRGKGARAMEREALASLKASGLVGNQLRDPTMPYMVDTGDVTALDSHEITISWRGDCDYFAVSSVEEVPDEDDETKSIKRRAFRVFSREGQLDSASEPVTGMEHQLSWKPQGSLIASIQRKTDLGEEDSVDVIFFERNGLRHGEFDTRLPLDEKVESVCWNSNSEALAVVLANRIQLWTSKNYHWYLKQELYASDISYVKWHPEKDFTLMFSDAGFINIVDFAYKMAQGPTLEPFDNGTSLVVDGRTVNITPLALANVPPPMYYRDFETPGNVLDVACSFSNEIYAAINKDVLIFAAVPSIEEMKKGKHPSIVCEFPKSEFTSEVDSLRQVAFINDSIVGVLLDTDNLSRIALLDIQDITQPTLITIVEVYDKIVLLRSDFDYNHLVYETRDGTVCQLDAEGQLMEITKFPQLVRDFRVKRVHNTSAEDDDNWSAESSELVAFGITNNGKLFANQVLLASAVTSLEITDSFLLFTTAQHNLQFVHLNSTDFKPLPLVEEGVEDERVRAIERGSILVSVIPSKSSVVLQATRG

In the case of B1, the binding result in the assay with FL GST-Elp1 was “binds”.

Turning to B2, the binding result with FL GST-Elp1 is listed as “binds”.

B3: the binding result in assay [1] and in assay [2] was “binds” throughout.

On to B4, for which, in the assay with GST-Elp1 1-734, the binding result was “binds”.

The values above are taken from paper PMC12421383, “Autophosphorylation of conserved yeast and human casein kinase 1 isozymes regulates Elongator-dependent tRNA modifications” (Nucleic Acids Research, 2025).
